Tests used:
Details in all cases: 20 nM; 72 h
MCF10A [1] = experiment: percent viability (nuclei count relative to siNT); higher = more viable cells
Method: (§1)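 After 72 h, cells were fixed and stained with Hoechst and anti-fibrillarin, and nucleoli per nucleus were counted with CellProfiler. Values are plate-adjusted percent effect for the one-nucleolus and 5+ nucleoli phenotypes, normalised to siNT (0%) and to the positive controls siNOL11 or siKIF11 (100%), as the mean of biological triplicates. Percent viability is the nuclei count relative to siNT.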

MCF10A [2] = experiment: one-nucleolus phenotype percent effect (relative to siNT 0% and siNOL11 100%); higher = more cells with one nucleolus (ribosome biogenesis inhibition)
Method: as §1

MCF10A [3] = experiment: 5+ nucleoli phenotype percent effect (relative to siNT 0% and siKIF11 100%); higher = more cells with five or more nucleoli
Method: as §1

Sequence	percent viability (MCF10A [1]) [%]	one-nucleolus phenotype percent effect (MCF10A [2]) [%]	5+ nucleoli phenotype percent effect (MCF10A [3]) [%]
GUGUCUGCUUCCUGUGGGA [hsa-miR-632]	37	31.3	-24.2
GUGUCUGGGCGGACAGCUGC [hsa-miR-1231]	39.3	62.4	-15.6
GUGUCUUUUGCUCUGCAGUCA [hsa-miR-511]	55.3	-6.61	-3.71
GUGUGACCACCGUUCCUGCAG [hsa-miR-6808-3p]	27.3	28.3	-25.4
GUGUGCGGAAAUGCUUCUGCUA [hsa-miR-147b]	70.3	-12.4	33.7
GUGUGGAAGAUGGGAGGAGAAA [hsa-miR-6833-5p]	49.8	-3.83	4.29
GUGUGGCCGGCAGGCGGGUGG [hsa-miR-7108-5p]	55.9	-12.6	6.78
GUGUUAAUUAAACCUCUAUUUAC [hsa-miR-2053]	91.5	-1.87	3.14
GUGUUCUCUGAUGGACAG [hsa-miR-4273]	49.3	-6.59	10.3
GUGUUGAAACAAUCUCUACUG [hsa-miR-653]	169	-22.2	38.1
GUUAGGGCCAACAUCUCUUGG [hsa-miR-2909]	48.3	-6.14	5.52
GUUCAAAUCCAGAUCUAUAAC [hsa-miR-607]	111	-23.2	34.2
GUUCCACACUGACACUGCAGAAGU [hsa-miR-3692-3p]	49.6	-3.86	6.05
GUUCCUGCUGAACUGAGCCAG [hsa-miR-3074-5p]	42.2	-7.07	-17.7
GUUCUGUUAACCCAUCCCCUCA [hsa-miR-4652-3p]	28.2	16	-42.7
GUUGGGACAAGAGGACGGUCUU [hsa-miR-3122]	87.3	-20.5	22.1
GUUGGGGUGCAGGGGUCUGCU [hsa-miR-5572]	19.7	43.3	-19.8
GUUGUGUCAGUUUAUCAAAC [hsa-miR-599]	84.3	-13.5	29.3
GUUUAACCUUUUGCCUGUUGG [hsa-miR-552-5p]	98.1	-29.8	32
GUUUCACCAUGUUGGUCAGGC [hsa-miR-5096]	49	21.9	-17.6
GUUUGCACGGGUGGGCCUUGUCU [hsa-miR-557]	47.7	34.6	-30.1
GUUUGGACAUAGUGUGGCUGG [hsa-miR-7850-5p]	115	-32.7	49.1
GUUUUACCACCUCCAGGAGACU [hsa-miR-2681-5p]	36	-33.4	3.14
UAAAAACUGCAAUUACUUUUA [hsa-miR-548aj-3p]	115	-18.5	35.3

Sequence	percent viability (MCF10A [1]) [%]	one-nucleolus phenotype percent effect (MCF10A [2]) [%]	5+ nucleoli phenotype percent effect (MCF10A [3]) [%]
UAAAACCCACAAUUAUGUUUGU [hsa-miR-548as-3p]	149	25.3	-6.8
UAAAACUGCAGUUAUUUUUGC [hsa-miR-548ar-3p]	122	-24.2	38.3
UAAAACUUUAAGUGUGCCUAGG [hsa-miR-5582-3p]	72.9	-11.3	7.07
UAAAAUUUGCAUCCAGGA [hsa-miR-4282]	66	-28.5	22.1
UAAAGAACUCUUAAAACCCAAU [hsa-miR-3133]	51.5	-22.2	48.7
UAAAGACUGUAGAGGCAACUGGU [hsa-miR-7161-5p]	79.8	-23.4	33.8
UAAAGAGCCCUGUGGAGACA [hsa-miR-1276]	41.4	24.1	-20.8
UAAAGUAAAUAUGCACCAAAA [hsa-miR-559]	153	-21.4	24
UAAAGUGCUGACAGUGCAGAU [hsa-miR-106b-5p]	91.2	-11.2	5.03
UAAAGUGCUUAUAGUGCAGGUAG [hsa-miR-20a-5p]	81.6	-13.2	6.94
UAAAGUGGCAGAGUAUAGACAC [hsa-miR-4796-3p]	75.7	-1.57	-8.21
UAAAUAGAGUAGGCAAAGGACA [hsa-miR-3121-3p]	49.3	-18	15.6
UAAAUCCCAUGGUGCCUUCUCCU [hsa-miR-605]	31.2	53.8	-52.1
UAAAUUUCACCUUUCUGAGAAGA [hsa-miR-513c-3p]	28.5	15.7	-1.66
UAAAUUUCACCUUUCUGAGAAGG [hsa-miR-513a-3p]	49	18	-3.52
UAACAAACACCUGUAAAACAGC [hsa-miR-5688]	101	-7.14	22.5
UAACACUGUCUGGUAAAGAUGG [hsa-miR-141-3p]	83	-19.9	44.6
UAACACUGUCUGGUAACGAUGU [hsa-miR-200a-3p]	75.6	-6.99	36.9
UAACAGUCUACAGCCAUGGUCG [hsa-miR-132-3p]	112	-5.13	-13.6
UAACAGUCUCCAGUCACGGCC [hsa-miR-212-3p]	219	-19.5	29.7
UAACAUAAUAGUGUGGAUUGA [hsa-miR-4803]	168	-25	40.9
UAACCCUGUCCUCUCCCUCCCAG [hsa-miR-6732-3p]	36.4	-9.42	1.9
UAACGCAUAAUAUGGACAUGU [hsa-miR-3912]	71.2	-23.9	27.3
UAACGGCCGCGGUACCCUAA [hsa-miR-4485]	32.8	0.183	-19.2

Reference: the supplement of paper PMC10899765
